Positions count from the first letter of the chain named. Read-outs that look alike come from different tables or passages of the source. Blank lines part the entries; values can stand above or below the molecule they belong to.
How the values were obtained:
FtsA(ΔMTS) [1] = molecular target: T1, FtsA(ΔMTS) (Escherichia coli, UniProt P0ABH0); assay: sedimentation of polymers; type: biochemical; settings: 50 mM Tris-HCl pH 7.5, 150 mM KCl, 4 mM MgCl2, 23 °C; polymerisation
T1 sequence (P0ABH0 1-404): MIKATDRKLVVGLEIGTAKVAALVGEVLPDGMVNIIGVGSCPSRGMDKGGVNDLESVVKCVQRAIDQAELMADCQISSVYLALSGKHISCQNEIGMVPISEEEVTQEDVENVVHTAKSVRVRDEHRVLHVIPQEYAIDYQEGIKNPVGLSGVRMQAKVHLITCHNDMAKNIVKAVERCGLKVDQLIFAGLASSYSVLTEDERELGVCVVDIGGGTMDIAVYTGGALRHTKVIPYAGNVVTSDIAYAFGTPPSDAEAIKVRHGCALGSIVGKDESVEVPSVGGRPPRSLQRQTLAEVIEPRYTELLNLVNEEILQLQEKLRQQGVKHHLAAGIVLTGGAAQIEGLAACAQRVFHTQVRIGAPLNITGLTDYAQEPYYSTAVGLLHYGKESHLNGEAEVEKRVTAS

FtsA(ΔMTS) [2] = molecular target: T1, FtsA(ΔMTS); settings: 50 mM Tris-HCl pH 7.5, 150 mM KCl, 4 mM MgCl2, 23 °C, ATP 4 mM; polymerisation
[3] = molecular target: the molecule itself; assay: negative-stain transmission electron microscopy
FtsA(ΔMTS) [4] = molecular target: T2, FtsA(ΔMTS) (E. coli, UniProt P0ABH0 1-404); assay: negative-stain transmission electron microscopy
T2 sequence: T1 sequence (P0ABH0 1-404)

Escherichia coli FtsA = molecular target: T3, Escherichia coli FtsA (E. coli, UniProt P0ABH0 1-420); assay: co-sedimentation
T3 sequence: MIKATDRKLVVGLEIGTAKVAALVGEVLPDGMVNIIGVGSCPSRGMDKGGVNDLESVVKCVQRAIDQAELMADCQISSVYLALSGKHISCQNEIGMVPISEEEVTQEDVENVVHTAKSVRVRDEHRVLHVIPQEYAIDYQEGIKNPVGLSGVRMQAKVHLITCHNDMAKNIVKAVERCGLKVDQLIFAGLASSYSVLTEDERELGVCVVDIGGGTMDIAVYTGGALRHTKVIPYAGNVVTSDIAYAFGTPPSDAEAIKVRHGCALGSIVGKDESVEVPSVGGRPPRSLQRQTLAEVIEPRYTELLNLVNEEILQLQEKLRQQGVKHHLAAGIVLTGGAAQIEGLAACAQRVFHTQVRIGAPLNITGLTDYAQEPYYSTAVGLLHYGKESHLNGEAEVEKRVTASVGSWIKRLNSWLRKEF

FtsA(E14R) = molecular target: T4, FtsA(E14R) (E. coli, UniProt P0ABH0 1-420, E14R); assay: co-sedimentation
T4 sequence: T3 sequence with E14R

FtsA(ΔMTS) [5] = molecular target: T2, FtsA(ΔMTS); assay: bead recruitment assay

% FtsA(ΔMTS) in pellet (FtsA(ΔMTS) [1]): 22.4%
Molecule: Nc1ncnc2c1ncn2[C@@H]1O[C@H](COP(=O)(O)OP(=O)(O)O)[C@@H](O)[C@H]1O [ADP]

% FtsA(ΔMTS) in pellet (FtsA(ΔMTS) [2]): 50.0%
Molecule: Nc1ncnc2c1ncn2[C@@H]1O[C@H](COP(=O)(O)OP(=O)(O)OP(=O)(O)O)[C@@H](O)[C@H]1O [ATP]

binding result (FtsA(ΔMTS) [4]): binds
binding result (Escherichia coli FtsA): binds
binding result (FtsA(E14R)): binds
B1: Escherichia coli FtsZ (natural protein)
chain: MFEPMELTNDAVIKVIGVGGGGGNAVEHMVRERIEGVEFFAVNTDAQALRKTAVGQTIQIGSGITKGLGAGANPEVGRNAADEDRDALRAALEGADMVFIAAGMGGGTGTGAAPVVAEVAKDLGILTVAVVTKPFNFEGKKRMAFAEQGITELSKHVDSLITIPNDKLLKVLGRGISLLDAFGAANDVLKGAVQGIAELITRPGLMNVDFADVRTVMSEMGYAMMGSGVASGEDRAEEAAEMAISSPLLEDIDLSGARGVLVNITAGFDLRLDEFETVGNTIRAFASDNATVVIGTSLDPDMNDELRVTVVATGIGMDKRPEITLVTNKQVQQPVMDRYQQHGMAPLTQEQKPVAKVVNDNAPQTAKEPDYLDIPAFLRKQAD
binding result [3]: binds

binding result (FtsA(ΔMTS) [5]): binds
B2: H6-Gfp-FtsZ (natural protein)
chain: B1 chain

From article PMC8897712 (The Journal of Biological Chemistry, 2022)
